# Results taken from patent publication US20110262445A1 (CEPHALON AUSTRALIA, published 2011).
# Substitutions are numbered along the chain they refer to. In names and notes the source's numbering stands.
# B1: Antibody 35 (antibody, human IgG1, kappa, V domains shown)
# VH: QVQLVQSGAEVKKPGASVKVSCKVSGYTLTDYYMHWVRQAPGKGLEWMGWIDPENGDTEYAPKFQGRVTMTEDTSTDTAYMELSSLRSEDTAVYYCNACKELRYFDVWGQGTMVTVSS
# VL: EIVMTQSPATLSVSPGERATLSCRASQSISINLHWYQQKPGQAPRLLIYFASQSISGIPARFSGSGSGTEFTLTISSLQSEDFAVYYCQQSNSWPLTFGGGTKVEIKR
# B2: Antibody 36 (antibody, human IgG1, kappa, V domains shown)
# VH: B1 VH with V24A, L29F, K43Q, E72T, D77S, S84R, E89D
# VL: B1 VL
# B3: Antibody 78 (antibody, human IgG1, kappa, V domains shown)
# VH: B1 VH with M34L, N97A, A98T, C99N
# VL: B1 VL with M4L, V13L, E70D, Q79E, S80P, W94F
# B4: Antibody 176 (antibody, human IgG1, kappa)
# heavy: not shown
# light: DIQMTQSPSSVSASVGDRVTITCRASQSISINLHWYQQKPGKAPKLLIYFASQSISGVPSRFSGSGSGTDFSLTINSLQTEDFATYYCQQSNSFPLTFGGGTKVEIKRTVAAPSVFIFPPSDEQLKSGTASVVCLLNNFYPREAKVQWKVDNALQSGNSQESVTEQDSKDSTYSLSSTLTLSKADYEKHKVYACEVTHQGLSSPVTKSFNRGEC
# B5: Antibody 178 (antibody, human IgG1, kappa, V domains shown)
# VH: EVQLVQSGAEVKKPGATVKISCKASGYALSDYYLHWVRQAPEKGLEWMGWIDPENGDTEYAPKFQGRVTITADTSTDTGYLELSSLRSEDTAVYYCAANKELRYFDVWGQGTLVTVSS
# VL: DIQMTQSPSSVSASVGDRVTITCRASQSISINLHWYQQKPGKAPKLLIYFASQSISGVPSRFSGSGSGTDFSLTINSLQTEDFATYYCQQSNSFPLTFGGGTKVEIKR
# B6: Antibody 34 (antibody, human IgG1, kappa, V domains shown)
# VH: B1 VH with Q1E, S17T, V20I, L29F, R38Q, M70I, E72A
# VL: B1 VL
# B7: Antibody 37 (antibody, human IgG1, kappa, V domains shown)
# VH: B1 VH with Q1E, S17T, V20I, L29F, R38Q, M70I, E72A
# VL: B1 VL with M4L, V13L, E70D, Q79E, S80P
# notes: Superhumanized, backmutated heavy chain
# B8: Antibody 40 (antibody, human IgG1, kappa, V domains shown)
# VH: B1 VH with Q1E, S17T, V20I, L29F, R38Q, M70I, E72A, N97A, A98T
# VL: EIVLTQSPDFQSVTPKEKVTITCRASQSISINLHWYQQKPDQSPKLLIKFASQSISGVPSRFSGSGSGTDFTLTINSLEAEDAATYYCQQSNSWPLTFGGGTKVEIKR
# notes: Superhumanized PMA204
# B9: scFv CP-A6 (scFv)
# scFv: QVQLVQSGAEVKKPGASVKVSCKASGYTFTDYYLHWVRQAPGQGLEWMGWIDPENGDTEHAPKFQGRVTMTTDTSTSTAYMELRSLRSDDTAVYYCNANKELRYFDVWGQGTMVTVSSGGGGSGGGGSGGGGSEIVMTQSPATLSVSPGERATLSCRASQSISINLHWYQQKPGQAPRLLIYFASQSISGIPARFSGSGSGTEFTLTISSLQSEDFAVYYCQQSNSFPLTFGGGTKVEIKR
# notes: scFv-80 variant: VH Y59H; not shown: proprietary C-terminal FLAG tag
# B10: scFv CU-A6 (scFv)
# scFv: B9 scFv with F29L, H60Y, T112A, S196F
# notes: scFv-80 variant: VH F29L, T107A; VL S63F; not shown: proprietary C-terminal FLAG tag
# B11: human IL-12p40 (ligand)
# chain: IWELKKDVYVVELDWYPDAPGEMVVLTCDTPEEDGITWTLDQSSEVLGSGKTLTIQVKEFGDAGQYTCHKGGEVLSHSLLLLHKKEDGIWSTDILKDQKEPKNKTFLRCEAKNYSGRFTCWWLTTISTDLTFSVKSSRGSSDPQGVTCGAATLSAERVRGDNKEYEYSVECQEDSACPAAEESLPIEVMVDAVHKLKYENYTSSFFIRDIIKPDPPKNLQLKPLKNSRQVEVSWEYPDTWSTPHSYFSLTFCVQVQGKSKREKKDRVFTDKTSATVICRKNASISVRAQDRYYSSSWSEWASVPCS
# notes: p40 monomer; also called p40 subunit
# B12: human IL-12 (ligand)
# chain 1: B11 chain
# chain 2: RNLPVATPDPGMFPCLHHSQNLLRAVSNMLQKARQTLEFYPCTSEEIDHEDITKDKTSTVEACLPLELTKNESCLNSRETSFITNGSCLASRKTSFMMALCLSSIYEDLKMYQVEFKTMNAKLLMDPKRQIFLDQNMLAVIDELMQALNFNSETVPQKSSLEEPDFYKTKIKLCILLHAFRIRAVTIDRVMSYLNAS
# notes: Recombinant (Peprotech); FLAG-tagged IL-12 in the flow cytometry assays, biotinylated in the IL-12Rβ2 assay; also called hIL-12
# B13: human IL-23 (ligand)
# chain 1: B11 chain
# chain 2: RAVPGGSSPAWTQCQQLSQKLCTLAWSAHPLVGHMDLREEGDEETTNDVPHIQCGDGCDPQGLRDNSQFCLQRIHQGLIFYEKLLGSDIFTGEPSLLPDSPVGQLHASLLGLSQLLQPEGHHWETQQIPSLSPSQPWQRLLLRFKILRSLQAFVAVAARVFAHGAATLSP
# notes: Recombinant (Ebioscience); HIS-tagged in flow cytometry, biotinylated in some assays; also called hIL-23; rhIL-23
# Columns and labels:
# human IL-12 [1] = target: B12; assay: ELISA, coated IL-12
# How it was run: (§1)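 Binding values are absorbance readings. After cytokine (1 μg/mL, carbonate buffer pH 9.6) was coated onto Maxisorp plates overnight at 4° C and the plates were blocked with 1% BSA in PBS, antibody titrations were bound for 1 hour at 25° C and detected with HRP-linked goat anti-human IgG or anti-murine immunoglobulin (1:2000). Color from TMB, stopped with 1M HCl, was read at 450 nm with 620 nm as reference.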
# human IL-23 [2] = target: B13; assay: ELISA, coated IL-23
# How it was run: as §1
# human IL-12 [3] = target: B12; assay: ELISA, coated IL-12; remark: listed apart in the source
# How it was run: as §1
# human IL-23 [4] = target: B13; assay: ELISA, coated IL-23; remark: listed apart in the source
# How it was run: as §1
# human IL-12 [5] = target: B12; assay: ELISA
# How it was run: as §1
# human IL-23 [6] = target: B13; assay: ELISA
# How it was run: as §1
# human IL-12 [7] = target: B12; assay: SPR, purified scFv captured via FLAG
# Experimental: (§2) A number of the scFv variants presented in TABLE 4 were selected for full characterization of binding kinetics, encompassing a broad range of mutation profiles and binding affinities. Large-scale protein expressions were carried out for each scFv. The expressed scFvs were purified as monomeric proteins and tested for binding against IL-12 and IL-23 by SPR (TABLE 5).
# (§3) Purified scFvs were subjected to full kinetic characterization using a BIAcore T100 biosensor (GE Healthcare). Approximately 10,000 RU of the proprietry FLAG-specific capture molecule was immobilized on a CM5 Series S Sensor chip, using standard amine coupling chemistry in flow cells (FC) 1 and FC2 (or alternatively FC3 and FC4) of the BIAcore T100 Biosensor. The running buffer used was HBS-EP+ (BIAcore) and interactions measured at 30° C. or 35° C. to promote differentiation of scFvs with very similiar kd values. Peak purified FLAG-tagged scFvs (prepared as described in the previous paragraph) were diluted to 10 nM in running buffer, and captured on FC2 at a flow rate of 10 μl/min in order to capture 50 RU of scFv (typically 60 sec was sufficient to capture this level of tagged scFv). After an appropriate stabilization period, the target, IL-12 or IL-23, were passed over FC1 and FC2 at a flow rate of 60 μl/min at concentrations ranging from 81 nM to 0.13 nM (using a five-fold dilution of IL-12) and 81 nM to 1 nM (using a three-fold dilution of IL-23). The contact time for association was 180 sec and dissociation measured for 10 mins for the highest concentration and 300 sec for all other concentrations in the series. The sensorgram data from FC2 was subtracted from FC1 and a buffer only control. The curves were fitted using a 1:1 Langmuir equation to generate the kₐ, kd and KD values.
# human IL-23 [8] = target: B13; assay: SPR, purified scFv captured via FLAG
# Experimental: as §2, §3
# human IL-23 [9] = target: B13; assay: SPR screen, crude scFv captured via FLAG
# How it was run: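 Crude periplasmic FLAG-tagged scFvs were captured on an anti-FLAG surface (approx. 100 or 50 RU) in HBS-EP+ at 25 °C. IL-23 was injected for 120 s at 30 μl/min, with 200 s dissociation. Referenced sensorgrams were fitted to a 1:1 Langmuir model for ka, kd and KD.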
# human IL-23 [10] = target: B13; assay: SPR, purified scFv captured via FLAG; LOD estimated 1 × 10^-5 s^-1
# Experimental: as §2, §3
# [11] = target: T1, IL-12Rβ1 on stably transfected Jurkat cells (human, UniProt P42701 24-662); assay: flow cytometry; binding blocked by Antibody 202.1
# T1 construct: whole, on cells; Cell line negative for IL-12Rβ2 and IL-23R; also called IL-12Rβ1 Jurkat cell line
# How it was run: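 Jurkat cells stably transfected with IL-12Rβ1 were used. FLAG- or HIS-tagged cytokine at 250 ng/ml was preincubated with antibody (10 to 0.01 μg/ml, half-log dilutions) for one hour at 37° C, then cells at 10⁶/ml were added for a further hour. Cells were washed in PBS/10% FBS. Cell-bound cytokine was detected with phycoerythrin anti-HIS or FITC anti-FLAG on a Beckman-Coulter Quanta, and blocking of receptor binding was the read-out.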
binder,measurement,setting,value
B1,binding result,human IL-12 [1],binds
same,binding result,human IL-23 [2],binds
B2,binding result,human IL-12 [1],binds
same,binding result,human IL-23 [2],binds
B3,binding result,human IL-12 [3],binds
same,binding result,human IL-23 [4],binds
B4,binding result,human IL-12 [5],binds
same,binding result,human IL-23 [6],binds
B5,binding result,human IL-12 [5],binds
same,binding result,human IL-23 [6],binds
B6,binding result,human IL-12 [1],binds
same,binding result,human IL-23 [2],binds
B7,binding result,human IL-12 [1],binds
same,binding result,human IL-23 [2],binds
B8,binding result,human IL-12 [1],binds
same,binding result,human IL-23 [2],binds
B9,Kd,human IL-12 [7],0.061 nM
same,koff,human IL-12 [7],0.00012 s⁻¹
same,kon,human IL-12 [7],2e+06 M⁻¹ s⁻¹
same,kon,human IL-23 [8],310000 M⁻¹ s⁻¹
same,koff,human IL-23 [9],0.00019 s⁻¹
same,koff,human IL-23 [10],< 1e-05 s⁻¹
B10,Kd,human IL-12 [7],0.048 nM
same,koff,human IL-12 [7],9.7e-05 s⁻¹
same,kon,human IL-12 [7],2e+06 M⁻¹ s⁻¹
same,kon,human IL-23 [8],300000 M⁻¹ s⁻¹
same,koff,human IL-23 [9],0.00019 s⁻¹
same,koff,human IL-23 [10],< 1e-05 s⁻¹
B11,binding result,[11],binds
B12,binding result,[11],binds
B13,binding result,[11],binds
